Legend:
[1] = target: T1, C3G full-length wild type (human, isoform a, residues 4-1077) (human) (UniProt Q13905)
T1 sequence: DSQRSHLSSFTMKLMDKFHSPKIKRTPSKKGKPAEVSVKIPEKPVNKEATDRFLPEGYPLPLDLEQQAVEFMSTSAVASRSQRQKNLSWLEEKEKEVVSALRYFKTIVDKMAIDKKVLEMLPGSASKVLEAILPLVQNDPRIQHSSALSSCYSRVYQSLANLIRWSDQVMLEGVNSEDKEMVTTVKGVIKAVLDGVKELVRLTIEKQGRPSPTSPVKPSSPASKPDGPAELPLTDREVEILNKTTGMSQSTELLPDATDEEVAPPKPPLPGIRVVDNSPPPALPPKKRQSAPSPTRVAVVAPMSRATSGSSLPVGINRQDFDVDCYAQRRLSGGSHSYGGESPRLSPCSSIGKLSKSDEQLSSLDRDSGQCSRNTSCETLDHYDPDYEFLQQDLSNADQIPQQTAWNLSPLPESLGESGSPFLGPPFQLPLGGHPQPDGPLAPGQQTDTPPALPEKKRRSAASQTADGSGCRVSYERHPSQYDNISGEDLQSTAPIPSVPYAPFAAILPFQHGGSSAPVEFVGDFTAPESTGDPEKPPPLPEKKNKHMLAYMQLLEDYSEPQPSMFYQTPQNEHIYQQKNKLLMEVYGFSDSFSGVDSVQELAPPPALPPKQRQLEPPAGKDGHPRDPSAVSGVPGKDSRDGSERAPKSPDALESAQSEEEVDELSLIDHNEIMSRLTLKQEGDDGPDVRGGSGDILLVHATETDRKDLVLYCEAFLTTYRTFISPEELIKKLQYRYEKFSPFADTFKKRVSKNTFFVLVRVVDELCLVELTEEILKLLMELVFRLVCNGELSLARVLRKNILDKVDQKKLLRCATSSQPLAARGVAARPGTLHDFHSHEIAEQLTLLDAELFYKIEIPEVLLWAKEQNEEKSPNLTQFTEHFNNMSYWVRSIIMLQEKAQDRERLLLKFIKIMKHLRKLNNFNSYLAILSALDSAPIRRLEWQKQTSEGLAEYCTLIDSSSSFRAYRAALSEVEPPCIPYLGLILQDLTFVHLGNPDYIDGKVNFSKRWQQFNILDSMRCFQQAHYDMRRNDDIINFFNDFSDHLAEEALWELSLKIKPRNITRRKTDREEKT

[2] = target: T2, Src-phosphorylated C3G (pC3G), wild type (human) (UniProt Q13905)
T2 sequence (chain, phosphotyrosines (phosphorylated in vitro by Src; sites not stated)): T1 sequence

C3G P1 P1 (Homo sapiens) = C3G P1 P1 (Homo sapiens) (UniProt Q13905); conditions: cited from earlier work
[3] = target: the P1 (C3G-PAAA) and P2 (C3G-APAA) motifs; assay: ITC; single-PRM mutants of C3G in the cell titrated with full-length CrkL or CrkL-SH3N; 25 °C; 1:1 model in SEDPHAT; N is the competent fraction of C3G

Chain of CrkL, full-length (human) (P46109 whole entry): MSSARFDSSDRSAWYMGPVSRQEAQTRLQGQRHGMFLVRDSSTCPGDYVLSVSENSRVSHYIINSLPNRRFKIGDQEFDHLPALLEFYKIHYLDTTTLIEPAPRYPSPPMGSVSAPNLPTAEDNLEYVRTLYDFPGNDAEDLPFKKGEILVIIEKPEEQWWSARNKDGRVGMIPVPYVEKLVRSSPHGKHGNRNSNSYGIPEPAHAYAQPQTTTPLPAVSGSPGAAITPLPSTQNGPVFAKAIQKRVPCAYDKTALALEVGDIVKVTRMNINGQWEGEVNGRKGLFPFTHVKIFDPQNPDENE
Chain of CrkL (P46109 whole entry): as above

AC50 of the dose-response activation of the GEF activity of C3G (1 µM) on Rap1b:mant-dGDP [1] [µM]	kmax of the dose-response activation of the GEF activity of C3G (1 µM) on Rap1b:mant-dGDP [1] [M⁻¹ s⁻¹]	AC50 of the dose-response activation of the GEF activity of pC3G (0.2 µM) on Rap1b:mant-dGDP [2] [µM]	kmax of the dose-response activation of the GEF activity of pC3G (0.2 µM) on Rap1b:mant-dGDP [2] [s^-1 µM^-1]	stoichiometry N [3]	Substance	Kd (C3G P1 P1 (Homo sapiens)) [µM]
18.7	7900	1.6	0.03	–	CrkII-L-II chimera (from UniProt P46108-1 1-133; P46109 125-182; P46108-1 191-304)	–
–	–	–	–	–	CrkL (from UniProt P46109)	2.8
–	–	–	–	0.8 to 0.9	CrkL, full-length (human) (from UniProt P46109 1-303) (natural protein)	–
16.7	7900	2.3	0.0336	–	CrkL-II-L chimera (from UniProt P46109 1-124; P46108-1 134-191; P46109 183-303)	–

From article PMC9896810
